From PMC3683295 come the findings set out here.

The target of one assay is BCL-xLΔC (human) (UniProt Q07817). Nature of the assay: native gel or EMSA.
For assay [1], the target named is BCL-xLΔLΔC (human) (UniProt Q07817). Nature of the assay: native gel or EMSA. On the technique in general: Mobility shift assays separate free from complexed probe on a gel.
The target is the same in assay [2]. The experiment in a line: AUC.
The target is the same in assay [3]. Nature of the assay: NMR solution structure.

The stoichiometry N is a count of units in the complex or per binding partner. As to “BCL-xLΔC (from UniProt Q07817-1 1-211) (domain or fragment)”, the stoichiometry N with BCL-xLΔC (human) was 2.
As to “BCL-xLΔLΔC (from UniProt Q07817-1 1-211) (domain or fragment)”, in the assay with BCL-xLΔLΔC (human) [1], the stoichiometry N came to 2.
Turning to PUMA^BH3 (peptide), the stoichiometry N with BCL-xLΔLΔC (human) [2], with BCL-xLΔC (human) and with BCL-xLΔLΔC (human) [3] was 1 throughout.
